This note sets out measurements from PMC9898148 (Structure (London, England : 1993), 2022).

The target in assay [1] is T1, hNAA30^211-362 (catalytic subunit of human NatC, N-terminally truncated) (human, UniProt Q147X3 211-362).
T1 sequence (looked up): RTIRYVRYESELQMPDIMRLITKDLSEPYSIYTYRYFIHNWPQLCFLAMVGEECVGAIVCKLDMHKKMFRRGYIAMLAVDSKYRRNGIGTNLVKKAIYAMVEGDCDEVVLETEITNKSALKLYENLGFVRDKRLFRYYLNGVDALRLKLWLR
Put plainly: cryo-EM structure.

Assay [2] has as its target T2, hNAA35^28-725 (large auxiliary subunit of human NatC, N-terminally truncated) (human, UniProt Q5VZE5 28-725).
T2 sequence (looked up): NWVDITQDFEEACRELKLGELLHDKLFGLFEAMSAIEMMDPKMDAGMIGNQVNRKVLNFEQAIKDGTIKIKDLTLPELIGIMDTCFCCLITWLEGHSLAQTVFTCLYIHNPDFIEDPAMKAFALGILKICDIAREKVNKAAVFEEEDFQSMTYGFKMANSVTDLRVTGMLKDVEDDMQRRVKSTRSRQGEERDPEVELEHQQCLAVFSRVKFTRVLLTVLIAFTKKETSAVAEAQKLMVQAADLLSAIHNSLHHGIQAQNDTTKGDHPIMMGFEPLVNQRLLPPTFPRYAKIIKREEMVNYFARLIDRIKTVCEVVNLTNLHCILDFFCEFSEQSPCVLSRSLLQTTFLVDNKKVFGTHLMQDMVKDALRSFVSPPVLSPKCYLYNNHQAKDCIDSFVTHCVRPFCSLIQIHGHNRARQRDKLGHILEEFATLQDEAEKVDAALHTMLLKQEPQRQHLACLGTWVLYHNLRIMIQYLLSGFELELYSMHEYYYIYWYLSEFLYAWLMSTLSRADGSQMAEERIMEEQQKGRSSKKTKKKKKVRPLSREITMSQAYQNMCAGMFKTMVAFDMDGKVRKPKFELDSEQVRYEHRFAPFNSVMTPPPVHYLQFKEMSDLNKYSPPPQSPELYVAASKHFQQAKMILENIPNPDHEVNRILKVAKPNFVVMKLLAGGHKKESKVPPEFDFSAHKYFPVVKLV
Put plainly: cryo-EM structure.

In the case of {CoA‑Ac}-MLGPE-NH2 [CoA-Ac-MLGPE-NH2 bisubstrate inhibitor], the binding result in assay [1] was “binds”.

B1: hNAA38^1-125 (small auxiliary subunit of human NatC, full length) (natural protein, UniProt Q9BRA0 1-125, looked up)
chain: MAGAGPTMLLREENGCCSRRQSSSSAGDSDGEREDSAAERARQQLEALLNKTMRIRMTDGRTLVGCFLCTDRDCNVILGSAQEFLKPSDSFSAGEPRVLGLAMVPGHHIVSIEVQRESLTGPPYL
With B1, the binding result in assay [2] is “binds”.
